What was measured:
Test in all cases: flow cytometry on cells displaying the construct
[1] = target: CID1873 (human GUCY2c patch mutant) (human/chicken)
Excerpt: (§1) Cells were then washed three times with PBS+0.5% BSA buffer. […] Cells were washed three times with PBS+0.5% BSA buffer and then analyzed on a flow cytometer.
(§2) MFI (median fluorescence intensity) of anti-GUCY2c antibody binding to the cells was normalized to expression on cell surface measured by MFI of anti-tag antibodies. All the cells expressed V5 and HA on the cell surface for expression normalization.

[2] = target: T1, CID1877 (human-chicken GUCY2c chimera) (human/chicken)
T1 chain: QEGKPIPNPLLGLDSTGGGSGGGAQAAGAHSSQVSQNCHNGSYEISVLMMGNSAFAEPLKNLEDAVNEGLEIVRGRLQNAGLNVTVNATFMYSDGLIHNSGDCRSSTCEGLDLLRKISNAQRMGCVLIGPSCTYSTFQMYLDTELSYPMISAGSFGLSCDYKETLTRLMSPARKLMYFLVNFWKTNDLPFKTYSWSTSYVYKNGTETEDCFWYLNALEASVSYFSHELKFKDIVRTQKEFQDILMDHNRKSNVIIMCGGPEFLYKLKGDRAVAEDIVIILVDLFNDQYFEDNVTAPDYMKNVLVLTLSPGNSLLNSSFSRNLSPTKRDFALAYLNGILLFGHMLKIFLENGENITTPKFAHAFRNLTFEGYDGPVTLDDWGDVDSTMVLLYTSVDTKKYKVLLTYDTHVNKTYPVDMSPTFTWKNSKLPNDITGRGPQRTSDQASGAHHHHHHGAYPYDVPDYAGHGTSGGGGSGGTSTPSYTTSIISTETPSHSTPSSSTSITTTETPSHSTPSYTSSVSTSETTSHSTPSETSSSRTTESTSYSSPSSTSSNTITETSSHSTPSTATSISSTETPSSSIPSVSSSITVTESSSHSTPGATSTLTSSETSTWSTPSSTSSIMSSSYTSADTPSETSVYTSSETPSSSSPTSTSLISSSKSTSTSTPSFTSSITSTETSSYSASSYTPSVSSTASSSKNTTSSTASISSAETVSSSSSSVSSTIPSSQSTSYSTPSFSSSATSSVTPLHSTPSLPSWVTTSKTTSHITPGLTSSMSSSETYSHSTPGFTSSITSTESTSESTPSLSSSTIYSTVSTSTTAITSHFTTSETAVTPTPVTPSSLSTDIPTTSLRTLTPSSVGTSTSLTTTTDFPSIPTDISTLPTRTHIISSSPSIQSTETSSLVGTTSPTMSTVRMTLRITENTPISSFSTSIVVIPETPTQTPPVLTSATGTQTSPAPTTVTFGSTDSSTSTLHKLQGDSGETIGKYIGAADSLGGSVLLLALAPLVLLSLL
Excerpt: as §1, §2

[3] = target: T2, CID1879 (human-chicken GUCY2c chimera) (human/chicken)
T2 chain: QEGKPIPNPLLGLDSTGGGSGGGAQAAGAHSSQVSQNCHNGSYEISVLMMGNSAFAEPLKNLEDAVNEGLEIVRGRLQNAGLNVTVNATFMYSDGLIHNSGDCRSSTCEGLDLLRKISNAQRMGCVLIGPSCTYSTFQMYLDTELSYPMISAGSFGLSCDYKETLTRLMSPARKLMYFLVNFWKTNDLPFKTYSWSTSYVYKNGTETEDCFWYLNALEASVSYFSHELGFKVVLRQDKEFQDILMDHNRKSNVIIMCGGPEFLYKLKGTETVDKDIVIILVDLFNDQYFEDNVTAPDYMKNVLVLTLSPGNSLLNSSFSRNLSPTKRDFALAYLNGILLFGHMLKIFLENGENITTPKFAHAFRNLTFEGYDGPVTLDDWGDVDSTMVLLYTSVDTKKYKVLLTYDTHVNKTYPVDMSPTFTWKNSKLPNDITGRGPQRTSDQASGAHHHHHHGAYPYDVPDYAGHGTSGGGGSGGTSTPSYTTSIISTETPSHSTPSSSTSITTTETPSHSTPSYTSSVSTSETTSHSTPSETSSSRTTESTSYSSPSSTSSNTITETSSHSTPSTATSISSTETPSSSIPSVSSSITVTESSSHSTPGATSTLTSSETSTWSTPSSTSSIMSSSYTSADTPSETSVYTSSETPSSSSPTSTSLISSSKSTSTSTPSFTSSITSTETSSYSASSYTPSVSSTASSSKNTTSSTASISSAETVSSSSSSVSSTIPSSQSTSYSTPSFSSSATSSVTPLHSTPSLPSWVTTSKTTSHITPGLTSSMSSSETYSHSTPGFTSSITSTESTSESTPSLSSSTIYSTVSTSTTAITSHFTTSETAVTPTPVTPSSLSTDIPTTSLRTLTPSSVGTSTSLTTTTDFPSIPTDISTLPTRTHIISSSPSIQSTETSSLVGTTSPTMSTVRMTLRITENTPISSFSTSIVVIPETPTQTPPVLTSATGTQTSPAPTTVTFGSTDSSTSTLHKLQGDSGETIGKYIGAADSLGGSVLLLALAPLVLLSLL
Excerpt: as §1, §2

[4] = target: CID1941 (human GUCY2c point mutant) (human)
Excerpt: as §1, §2

[5] = target: CID1950 (human GUCY2c point mutant) (human)
Excerpt: as §1, §2

Measured: binding result

B1: GUCY2C-1608 (bispecific antibody)
chain 1: DIQLTQSPSSLSASVGDRVTITCRASESVDYYGSSLLQWYQQKPGKAPKLLIYAASKLASGVPSRFSGSGSGTDFTLTISSLQPEDFATYYCQQTRKAYTFGQGTKLEIKGGGSGGGGEVQLVESGGGLVQPGGSLRLSCAASGFTFSDYYMTWVRQAPGKGLEWVAFIRNQARGYTSDHNPSVKGRFTISRDNAKNSLYLQMNSLRAEDTAVYYCARDRPSYYVLDYWGQGTTVTVSSGCPPCPAPEAAGAPSVFLFPPKPKDTLMISRTPEVTCVVVDVSHEDPEVKFNWYVDGVEVHNAKTKPREEQYNSTYRVVSVLTVLHQDWLNGKEYKCKVSNKALPAPIEKTISKAKGQPREPQVCTLPPSREEMTKNQVSLWCLVKGFYPSDIAVEWESNGQPENNYKTTPPVLDSDGSFFLYSKLTVDKSRWQQGNVFSCSVMHEALHNHYTQKSLSLSPG
chain 2: DIQMTQSPSSLSASVGDRVTITCTSSQSLFNVRSQKNYLAWYQQKPGKAPKLLIYWASTRESGVPSRFSGSGSGTDFTLTISSLQPEDFATYYCKQSYDLFTFGGGTKVEIKGGGGSGGGGEVQLVESGGGLVQPGGSLRLSCAASGFTFSSYWMHWVRQAPGKGLEWIGEIKPSNELTNVHEKFKDRFTISVDKAKNSAYLQMNSLRAEDTAVYYCTRTITTTEGYWFFDVWGQGTLVTVSSGCPPCPAPEAAGAPSVFLFPPKPKDTLMISRTPEVTCVVVDVSHEDPEVKFNWYVDGVEVHNAKTKPREEQYNSTYRVVSVLTVLHQDWLNGKEYKCKVSNKALPAPIEKTISKAKGQPREPQVYTLPPCREEMTKNQVSLSCAVKGFYPSDIAVEWESNGQPENNYKTTPPVLDSDGSFFLVSKLTVDKSRWQQGNVFSCSVMHEALHNHYTQKSLSLSPG
notes: also called GUCY2c CD3 bispecific
binds: all assays above
